IntAct's records for PubMed 20404169

B1: Protein kinase C and casein kinase substrate in neurons protein 1 (Mus musculus), Q61644 (parent)
chain: MSGSYDEASEEITDSFWEVGNYKRTVKRIDDGHRLCNDLMSCVQERAKIEKAYAQQLTDWAKRWRQLIEKGPQYGSLERAWGAMMTEADKVSELHQEVKNSLLNEDLEKVKNWQKDAYHKQIMGGFKETKEAEDGFRKAQKPWAKKMKELEAAKKAYHLACKEERLAMTREMNSKTEQSVTPEQQKKLVDKVDKCRQDVQKTQEKYEKVLEDVGKTTPQYMEGMEQVFEQCQQFEEKRLVFLKEVLLDIKRHLNLAENSSYMHVYRELEQAIRGADAQEDLRWFRSTSGPGMPMNWPQFEEWNPDLPHTTAKKEKQPKKAEGATLSNATGAVESTSQAGDRGSVSSYDRGQTYATEWSDDESGNPFGGNEANGGANPFEDDAKGVRVRALYDYDGQEQDELSFKAGDELTKLGEEDEQGWCRGRLDSGQLGLYPANYVEAI
partner: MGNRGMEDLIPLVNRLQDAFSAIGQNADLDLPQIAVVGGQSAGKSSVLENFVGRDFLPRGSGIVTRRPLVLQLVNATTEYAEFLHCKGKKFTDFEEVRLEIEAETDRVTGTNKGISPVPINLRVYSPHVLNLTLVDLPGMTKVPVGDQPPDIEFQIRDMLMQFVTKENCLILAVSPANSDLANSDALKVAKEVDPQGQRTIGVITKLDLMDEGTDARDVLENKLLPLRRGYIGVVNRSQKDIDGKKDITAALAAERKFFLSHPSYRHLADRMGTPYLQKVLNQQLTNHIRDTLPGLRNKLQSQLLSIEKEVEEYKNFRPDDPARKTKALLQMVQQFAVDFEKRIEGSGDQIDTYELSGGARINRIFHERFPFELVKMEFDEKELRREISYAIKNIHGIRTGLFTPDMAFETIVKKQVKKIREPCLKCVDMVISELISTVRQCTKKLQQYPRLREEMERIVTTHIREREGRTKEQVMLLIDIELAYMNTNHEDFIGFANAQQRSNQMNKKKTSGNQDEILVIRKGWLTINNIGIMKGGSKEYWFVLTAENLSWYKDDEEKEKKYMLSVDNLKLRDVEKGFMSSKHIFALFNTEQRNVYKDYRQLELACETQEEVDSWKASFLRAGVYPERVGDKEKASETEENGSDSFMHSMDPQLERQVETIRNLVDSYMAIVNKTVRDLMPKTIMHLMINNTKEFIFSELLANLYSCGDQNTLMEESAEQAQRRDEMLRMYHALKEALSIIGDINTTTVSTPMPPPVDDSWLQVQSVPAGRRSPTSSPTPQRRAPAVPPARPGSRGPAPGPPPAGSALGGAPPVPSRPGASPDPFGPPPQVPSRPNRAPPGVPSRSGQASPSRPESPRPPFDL

Variants of: B1
Details: with dyn1_human DNM1, Q05193

Row | effect of a mutation on the interaction | Variant
1 | decreasing interaction strength | D394R;E400R
2 | decreasing interaction | P434L
3 | decreasing interaction | E400R
